Here are results for four molecules from patent publication US11306137B2, “Antibody binding agents that bind Acinetobactor and uses thereof” (priority 2015, dated 2022).

Assay [1] deals with A. baumannii HUMC1. In words: Lethal bloodstream (i.v. tail-vein) infection model, survival. Particulars: i.v. infection; treated i.p. at 1 hr post-infection; C8 150 μg, colistin 0.0125 mg/kg; FIG. 7D. Format: in vivo, mice.
Assay [2] concerns A. baumannii HUMC1. The experiment in a line: Effects of antibody on colistin MIC. It is filed as cell-based. On the procedure: The minimum inhibitory concentration (MIC) of colistin for A. baumannii HUMC1 was determined in congruence with standard CLSI methodologies. In brief, A. baumannii HUMC1 was passaged in Mueller Hinton II (MH-II) Broth for 3 hr at 37° C. with shaking then diluting to 5×10^5 CFUs/mL. Colistin was serially diluted across rows of a 96-well plate with 0.1, 1, or 10 μg/mL C8 MAb, which was incubated at 37° C. for 24 hr. The MIC value was read as the lowest concentration that prevented visible growth of bacteria.

The subject of assay [3] is A. baumannii cell surface. The experiment in a line: Flow cytometry binding to A. baumannii cell surface. The note with it: HUMC1 strain. The method, then:
Hybridoma pre-clones were selected for subcloning based on bacterial cell surface reactivity by flow cytometry. Briefly, A. baumannii was passaged to log phase, stained with the bacterial dye SYTO BC (LifeTech #B7277), then stained with pre-clone supernatant from 96-well plates at 4° C., rinsed, and counter-stained with CF 647-conjugated goat anti-mouse IgG (Sigma-Aldrich, #SAB4600182). Control samples were stained with mouse IgG1 isotype control mAb (R&D Systems, #MAB002). Percent positivity was determined by flow cytometry.
Hybridoma cell lines were propagated in 96-well flat-bottom plates in DMEM-20%, and supernatants were harvested from wells for initial flow cytometry screening to identify antibodies that bound to intact bacteria. In brief, A. baumannii isolates were passaged to log phase, stained with the bacterial dye SYTO BC (LifeTech #B7277), and incubated for 1 hr with undiluted supernatants collected from 96-well plates at 4° C. Cells were washed and counter-stained with a secondary antibody, CF647-conjugated goat anti-mouse IgG (Sigma-Aldrich, #SAB4600182). Control samples were stained with a mouse IgG1 isotype control MAb (R&D Systems, #MAB002) as a negative control, and mouse polyclonal HUMC1-immune serum as a positive control for bacterial binding. Hybridomas that tested positive for bacterial binding were subcloned by limiting dilution into 96-well plates to ensure clonality, expanded, and retested to confirm bacterial binding.
A general note: Flow cytometry measures light scatter and fluorescence of single cells or particles in a stream.

Assay [4] deals with A. baumannii HUMC1. In words: Lethal bloodstream (i.v. tail-vein) infection model, survival. Format: in vivo, mice. Particulars: 2×10^7 HUMC1 i.v.; treated once i.v., approximately 20 μg. On the procedure: To determine if C8 could treat, inhibit and/or prevent A. baumannii induced sepsis, mice were infected i.v. via the tail-vein with 2×10^7 hyper-virulent A. baumannii HUMC1 and were treated once i.v. with either protein-G purified C8 mAb (approximately 10 or 20 μg doses) or an isotype-control antibody in a saline buffer. […] In a second experiment, mice were similarly infected and the C8 MAb was administered once i.v. in saline buffer at a low (5 μg) and very low (0.5 μg) dose.
Male C3HeB/Fe mice (Jackson Labs) between the ages of 7-10 wk were used for all experiments. All animal work was conducted following approval by the Institutional Animal Use and Care Committee at the University of Southern California, in compliance with the recommendations in the Guide for the Care and Use of Laboratory Animals of the National Institutes of Health.
For the bloodstream infection model, mice were infected intravenously via the tail-vein with designated inocula of A. baumannii isolates. An oropharyngeal model of aspiration pneumonia that recapitulates hospital- or ventilator-associated pneumonia (VAP) relevant to ICU populations was used. In brief, mice were sedated with isoflurane, hung by their maxillary incisors, tongues held to prevent swallowing, and 50 μL of bacterial inocula was placed in the trachea to allow inoculation of the organisms into the lungs by reflexive aspiration.

For assay [5], the target named is T1, DHFR-3Loop fusion protein (mouse (DHFR part)); A. baumannii (OmpA …).
T1 construct: also called DHFR-3 Loop protein; recombinant DHFR-3Loop protein
T1 chain: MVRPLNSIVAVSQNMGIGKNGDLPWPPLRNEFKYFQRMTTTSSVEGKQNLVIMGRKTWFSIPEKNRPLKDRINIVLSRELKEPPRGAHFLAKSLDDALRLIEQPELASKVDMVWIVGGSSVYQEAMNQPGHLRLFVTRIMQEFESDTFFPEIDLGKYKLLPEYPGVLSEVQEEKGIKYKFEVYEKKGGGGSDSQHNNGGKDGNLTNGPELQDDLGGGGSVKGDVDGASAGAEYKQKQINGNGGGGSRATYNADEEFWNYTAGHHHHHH
In words: ELISA with DHFR-3Loop as target (data not shown). In general terms: An ELISA detects its analyte on a solid surface through an enzyme-linked reagent.

For assay [6], the target named is T2, outer membrane protein A (OmpA) of A. baumannii (A. baumannii, UniProt Q6RYW5 20-356).
T2 construct: also called whole OmpA
T2 sequence: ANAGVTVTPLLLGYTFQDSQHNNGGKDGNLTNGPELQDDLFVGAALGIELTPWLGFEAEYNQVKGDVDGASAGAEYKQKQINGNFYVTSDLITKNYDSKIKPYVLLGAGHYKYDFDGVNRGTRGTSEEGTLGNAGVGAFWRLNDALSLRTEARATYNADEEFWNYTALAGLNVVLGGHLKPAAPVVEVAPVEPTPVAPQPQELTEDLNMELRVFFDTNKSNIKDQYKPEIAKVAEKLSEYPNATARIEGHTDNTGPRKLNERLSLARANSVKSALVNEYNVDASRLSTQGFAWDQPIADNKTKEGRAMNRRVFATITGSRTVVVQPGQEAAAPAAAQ
The experiment in a line: ELISA with whole OmpA as target (data not shown).

colistin: in assay [1], the “survival, delayed treatment (monotherapy)” value is recorded as “completely ineffective”. Also, the “MIC of colistin against HUMC1” value in assay [2] (colistin alone), in assay [2] (in the presence of C8 at 0.1 μg/mL), in assay [2] (in the presence of C8 at 1 μg/mL) and in assay [2] (in the presence of C8 at 10 μg/mL) was 2 mg/L in each case.

B1: R2D2: mouse IgM monoclonal antibody from hybridoma R2D2 (ATCC PTA-122178); light chain SEQ ID NO:28, heavy chain SEQ ID NO:29 (antibody, listed as Mus musculus)
heavy: QVQLKQSGPGLVQPSQSLSITCTVSGFSLTSYGVHWVRQSPGKGLEWLGVIWSGGSTDYNAAFISRLSISKDNSKSQVFFKMNSLQANDTAIYYCARRRRSTAMDYWGQGTSVTVSSESQSFPN
light: DIGMTQSXSPQDMSVGPKVTMSSKCRKSLLNSRNQKKYLTSDQQKPGQYTKSLGDFASISESRVTDRFIGSGSGTDLPLGWGILPPLPLADYFCQQHYSTP
modifications: not fully specified; (8)..(8) Xaa can be any naturally occurring amino acid
Take B1: in assay [3], the “binding to the cell surface of A. baumannii by flow cytometry” value is recorded as “specifically bound”. In addition, in assay [4], the protection against infection result is recorded as “protective against infection”.

B2: 9.1C8 monoclonal antibody (antibody, V domains shown)
VH: EVQLQQSGPELVKPGASVKISCKASGYSFTGYTMNWVKQSHGKSLEWIGRINPYNGDSFYNQKFKGKATLTVDKSSNIAHMEFLSLTSEDSAVYYCGRSGDGPWFAYWGQGTLVTVSA
VL: LPLSLPVSLGDQASISCRSSQSIVHNNGNTYLEWYLQKPGQSPKLLIYKVSNRFSGVPDRFSGSGSGTDFTLKISRVEAEDLGVYYCFQGSHVPLTFGAGTKLEIKGSRS
notes: also called C8 mAb; C8 MAb
As to B2, the binding result in assay [5] and in assay [6] was “no binding” in each case.

B3: X1 monoclonal antibody (antibody, V domains shown)
VH: EVQLQQSGPELVKPGASVKISCKASGYSFTGYFMNWVKQSHGKSLEWIGRINPYNGDTFYNQKFKGKATLTVDKSSSTAHMELRSLTSEDSAVYYCARLNYRGAYWGQGTLVTVSA
VL: B2 VL
notes: also called X1 mAb
With B3, the binding result in assay [5] and in assay [6] was “no binding” in each case.
